Source: article PMC4368798, “Protein-Binding RNA Aptamers Affect Molecular Interactions Distantly from Their Binding Sites” (PLoS ONE, 2015)

Molecular target: T1, Human uPAR (uPA receptor), recombinant (human, UniProt Q03405 23-305)
T1 construct: probably a soluble form without the GPI anchor (surmise)
Assay: SPR; uPAR coupled to the sensor surface (1000 RU, 15 ug/mL in 10 mM Na acetate pH 4.5); 4 nM purified uPA variant (pro-uPA, ATF or GFD) passed over with or without RNA aptamer; bound amount after 80 s injection
Settings: both partners purified

T1 sequence (Q03405 23-305): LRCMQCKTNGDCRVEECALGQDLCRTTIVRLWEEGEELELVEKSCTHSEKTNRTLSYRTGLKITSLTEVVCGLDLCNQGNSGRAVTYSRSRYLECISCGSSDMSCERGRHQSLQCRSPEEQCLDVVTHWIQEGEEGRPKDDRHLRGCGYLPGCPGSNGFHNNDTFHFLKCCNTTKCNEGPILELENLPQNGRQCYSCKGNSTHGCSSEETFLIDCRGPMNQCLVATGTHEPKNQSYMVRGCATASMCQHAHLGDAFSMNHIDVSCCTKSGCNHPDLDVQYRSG

B1: GFD^4-43 domain of uPA (domain or fragment, human, UniProt P00749 24-63, looked up)
chain: LHQVPSNCDCLNGGTCVSNKYFSNIHWCNCPKKFGGQHCE
notes: human uPA epidermal growth factor-like domain, residues 4-43; numbers count on: the mature protein; also called growth factor domain; source: excised from recombinant pro-uPA by Glu-C digestion, purified by size exclusion chromatography
- binding result: binds
